Source: paper doi:10.1101/2023.09.24.559210

Legend:
[1] = target: nectin-1 C-terminal 10mer peptide, N-terminally FITC-conjugated; assay: fluorescence polarisation
[2] = target: JAM-A C-terminal 10mer peptide, N-terminally FITC-conjugated; assay: fluorescence polarisation
[3] = target: nectin-1 C-terminal 10mer peptide, N-terminally biotinylated; assay: BLI
[4] = target: JAM-A C-terminal 10mer peptide, N-terminally biotinylated; assay: BLI

B1: human afadin PDZ domain (domain or fragment)
chain: IITVTLKKQNGMGLSIVAAKGAGQDKLGIYVKSVVKGGAADVDGRLAAGDQLLSVDGRSLVGLSQERAAELMTRTSSVVTLEVAKQG
Kd [1]: 3 µM
Kd [2]: 5 µM
Kd [3]: 3 µM
bond lifetime [3]: 1.2 s
Kd [4]: 5 µM
bond lifetime [4]: 0.65 s
